B1: HDV Ribozyme (parent)
chain: GGCCGGCAUGGUCCCAGCCUCCUCGCUGGCGCCGGCUGGGCAACAUUCCGAGGGGACCGUCCCCUCGGUAAUGGCGAAUGGGACCCA

From the RNAGym collection of RNA variant scans (doi:10.7554/elife.80360) come the findings set out here.

In the series the parent is B1. Put plainly: self-cleavage, relative activity (ratio to wild type); higher = more cleavage; co-transcriptional.
For U12C C22G, the self-cleavage worked out at 0.

With C13A G59C, the self-cleavage was 0.237.

With U12C C32A, the self-cleavage is 0.256.

As to C13U C63A, the self-cleavage was 0.542.

U12C G55C: the self-cleavage was found to be 0.447.

With C13G C64G, the self-cleavage was determined as 0.138.

In the case of C13G C21G, the self-cleavage worked out at 0.0723.

Regarding C13G C21U, the self-cleavage stood at 0.141.

With U12G G17U, the self-cleavage is 0.475.

Take U12G G55U: the self-cleavage was found to be 0.748.

As to U12C G73U, the self-cleavage came out at 0.0811.

As to U12A U72C, the self-cleavage is 0.277.

For U12A G34A, the self-cleavage is 0.0378.

As to C13A C30G, the self-cleavage was 0.0282.

For the variant C13A C30A, the self-cleavage amounted to 0.0594.

On to U12C C30U, for which the self-cleavage came to 0.156.

In the case of U12C C30A, the self-cleavage is 0.193.

With C13A G52U, the self-cleavage is 0.225.

With C14A C48A, the self-cleavage turned out to be 0.485.

As for C14A C48G, the self-cleavage amounted to 0.969.

As to C13G G67U, the self-cleavage is 0.101.

For the variant C13G G38C, the self-cleavage came out at 0.0504.

In the case of C13U G40C, the self-cleavage stood at 0.0739.

Take C13U G40U: the self-cleavage was 0.117.

Consider C13A C61G, for which the self-cleavage is 0.0959.

For the variant C13A C61A, the self-cleavage was found to be 0.163.

With C13G C18U, the self-cleavage was found to be 0.0875.

For the variant C13G C18G, the self-cleavage was 0.138.

On to C14A C44A, for which the self-cleavage was 0.246.

Consider U12A C64U, for which the self-cleavage came out at 0.178.

Take U12A C64A: the self-cleavage is 0.26.

On to C13U C30A, for which the self-cleavage was 0.102.

On to C13U G55U, for which the self-cleavage is 0.598.

As for U12C G76C, the self-cleavage was 0.364.

With U12C G76A, the self-cleavage stood at 0.344.

For C13U G73C, the self-cleavage came out at 0.123.

As to C13A A51U, the self-cleavage was 0.172.

Turning to U12G C62G, the self-cleavage came out at 0.437.

Consider U12G C85G, for which the self-cleavage was determined as 0.369.

Take C13U C15A: the self-cleavage came out at 0.482.

Consider C13A G76A, for which the self-cleavage stood at 0.199.

For the variant C13G A45U, the self-cleavage came out at 0.0346.

Consider C13G U69G, for which the self-cleavage worked out at 0.111.

As to U12C G35C, the self-cleavage is 0.0923.

As for C13A G81C, the self-cleavage is 0.

As for C13U A16C, the self-cleavage was 0.8.

With C13A C24U, the self-cleavage was found to be 0.145.

Consider U12A C57U, for which the self-cleavage was determined as 0.246.

In the case of U12A C57A, the self-cleavage was 0.256.

Regarding C13G C19G, the self-cleavage is 0.0791.

Consider U12G U47A, for which the self-cleavage is 0.776.

Take U12G C24G: the self-cleavage is 0.136.

On to C13A A77G, for which the self-cleavage turned out to be 0.

For the variant C13A A77C, the self-cleavage came to 0.0462.

Take U12G A83U: the self-cleavage is 0.867.

For U12C C41U, the self-cleavage came to 0.415.

Regarding U12C C41A, the self-cleavage turned out to be 0.388.

As for U12G G68U, the self-cleavage was 0.779.

On to U12C C48U, for which the self-cleavage turned out to be 0.534.

Turning to U12G U46A, the self-cleavage turned out to be 0.332.

U12G U46G: the self-cleavage was 0.692.

With U12C U20A, the self-cleavage turned out to be 0.0723.

Turning to U12G C58U, the self-cleavage was 0.751.

As for U12G C58G, the self-cleavage was found to be 0.499.

In the case of U12G U20A, the self-cleavage was determined as 0.0573.

On to U12G C33G, for which the self-cleavage came out at 0.

For the variant U12C G59A, the self-cleavage came to 0.185.

For C13U G76C, the self-cleavage was determined as 0.772.

U12G C64U: the self-cleavage amounted to 0.914.

Take U12G U65A: the self-cleavage is 1.06.

U12A G68U: the self-cleavage stood at 0.312.

Turning to U12A G68A, the self-cleavage turned out to be 0.155.

C13A A43U: the self-cleavage came to 0.154.

For C13G C22A, the self-cleavage turned out to be 0.0361.

On to C13G C22G, for which the self-cleavage was found to be 0.131.

As to C13G G82C, the self-cleavage turned out to be 0.582.

Consider C13G G82U, for which the self-cleavage is 0.0361.

As to C13G C26A, the self-cleavage stood at 0.35.

Regarding C13G C26G, the self-cleavage is 0.0978.

On to C13G C61G, for which the self-cleavage stood at 0.0852.

Consider C13G G80U, for which the self-cleavage stood at 0.0475.

For C13G G80C, the self-cleavage turned out to be 0.0997.

For C13G G80A, the self-cleavage worked out at 0.

Consider U12G C66A, for which the self-cleavage amounted to 0.923.

Consider C13U C86G, for which the self-cleavage came to 0.692.

Regarding U12C A16U, the self-cleavage came to 1.05.

Regarding U12C A16C, the self-cleavage worked out at 0.302.

In the case of C14A C21U, the self-cleavage came out at 0.151.

Take C13A U23C: the self-cleavage was 0.271.

On to C13A U23A, for which the self-cleavage stood at 0.138.

In the case of C13A G17U, the self-cleavage was found to be 0.169.

On to C13A G50C, for which the self-cleavage came to 0.283.

C14A A42U: the self-cleavage was 0.201.

As for U12G A51U, the self-cleavage amounted to 1.13.

U12G C30G: the self-cleavage stood at 0.

In the case of C14A A77C, the self-cleavage is 0.115.

For C13G G29C, the self-cleavage worked out at 0.0415.

With U12G A70U, the self-cleavage is 1.02.

Take C13A G53C: the self-cleavage is 0.133.

As for U12A G74U, the self-cleavage is 0.101.

In the case of U12A G39A, the self-cleavage is 0.225.

For U12G A16C, the self-cleavage came out at 0.831.

Consider U12G A16U, for which the self-cleavage turned out to be 0.795.

C13G G52C: the self-cleavage came out at 0.0475.

With C13G G52A, the self-cleavage stood at 0.125.

For U12G A45G, the self-cleavage amounted to 0.959.

Consider U12A U65G, for which the self-cleavage was determined as 0.

On to C14A C61A, for which the self-cleavage was found to be 0.878.

As to C13A G39C, the self-cleavage worked out at 0.0554.

With U12C C61U, the self-cleavage worked out at 0.404.

Consider U12C C61G, for which the self-cleavage was found to be 0.32.

In the case of U12C C36G, the self-cleavage is 0.128.

As to U12C G54C, the self-cleavage was determined as 0.356.

For the variant C13G U72A, the self-cleavage came to 0.0536.

For C14A C41G, the self-cleavage came to 0.554.

Take C14A C41A: the self-cleavage was found to be 0.734.

As to C13U A45C, the self-cleavage was found to be 0.365.

As for U12C C84G, the self-cleavage worked out at 0.391.

Consider U12G C44U, for which the self-cleavage turned out to be 0.598.

In the case of C13G A56C, the self-cleavage turned out to be 0.0489.

As for C14A C63G, the self-cleavage was found to be 0.935.

Take U12C G80C: the self-cleavage turned out to be 0.104.

As to U12C G80A, the self-cleavage was found to be 0.243.

On to U12C G80U, for which the self-cleavage came to 0.18.

In the case of U12A G54U, the self-cleavage is 0.415.

For the variant C13U G82A, the self-cleavage is 0.997.

In the case of U12G C32U, the self-cleavage turned out to be 0.399.

For U12G C32A, the self-cleavage was 0.0639.

With U12G U23G, the self-cleavage is 0.256.

As for C13A C26G, the self-cleavage amounted to 0.657.

Take C13A C26A: the self-cleavage was determined as 0.623.

Take C13U G59U: the self-cleavage stood at 0.831.

Take C13U G59C: the self-cleavage is 0.587.

In the case of C13U G81C, the self-cleavage worked out at 0.249.

With U12A C62G, the self-cleavage was 0.133.

Turning to U12A C62A, the self-cleavage is 0.458.

Regarding U12G C15G, the self-cleavage amounted to 0.

On to U12G G80C, for which the self-cleavage came to 0.0791.

For U12C A77G, the self-cleavage is 0.302.

In the case of U12C A77U, the self-cleavage came out at 0.289.

With U12A C86U, the self-cleavage is 0.178.

In the case of U12C G82C, the self-cleavage came to 0.0504.

As for C13A G31C, the self-cleavage was 0.

For C13A G31A, the self-cleavage was found to be 0.0594.

Turning to U12G U37A, the self-cleavage was 0.0554.

C13G C49U: the self-cleavage is 0.

For the variant U12A G59A, the self-cleavage worked out at 0.172.

C13A A71G: the self-cleavage came out at 0.

In the case of C13A A71C, the self-cleavage worked out at 0.135.

With U12C A42C, the self-cleavage came to 0.0489.

For the variant C13G G74C, the self-cleavage is 0.128.

Turning to U12C G17A, the self-cleavage is 0.312.

Regarding C13A A83U, the self-cleavage came out at 0.142.

In the case of U12C G53C, the self-cleavage came to 0.332.

On to C13G G17A, for which the self-cleavage stood at 0.0652.

As for U12A G53U, the self-cleavage is 0.318.

On to U12C G40C, for which the self-cleavage worked out at 0.0405.

As to C13A A70G, the self-cleavage turned out to be 0.166.

Turning to C13G U37A, the self-cleavage was determined as 0.17.

C13U G34A: the self-cleavage came out at 0.0875.

For the variant C13A C57A, the self-cleavage was 0.185.

Take C13G C62A: the self-cleavage was 0.0692.

For C13G A83C, the self-cleavage was determined as 0.222.

On to C13A G68U, for which the self-cleavage amounted to 0.125.

As to C13U G50U, the self-cleavage turned out to be 0.642.

U12A C66G: the self-cleavage turned out to be 0.375.

As to C13G A78U, the self-cleavage worked out at 0.185.
